For experiment [1], the target named is human ErbB-2 (HER2) (human) (UniProt P04626). The experiment is described as follows: FACS on stable K562-HER2 cells; negative control.
Experiment [2] shares this target. The experiment is described as follows: cell-based or functional assay.

For the substance Anti-RSV mAb (antibody), the MFI in experiment [1] is 276 MFI.
trastuzumab + pertuzumab (1:1) came in with an MCF-7 IC50 (pM), HRG dependent proliferation in experiment [2] of 352 pM.

(Values after patent US11279770.)
